US20260176331A1

What was measured:
[1] = target: Hu FcgRIIA_R167 (human) (UniProt P12318); test: kinetics, antibody captured on protein A/G chip, FcγR injected as analyte
[2] = target: Hu FcγRIIβ (human) (UniProt P31994); test: as above
[3] = target: human FcγRIIβ on CHOK1 cells (human) (UniProt P31994); test: ratio of flow cytometry EC50s, reference FcγRIIα (R131) on CHOK1 cells

Sequence of UniProt P12318 (P12318 36-218 H167R limits assumed): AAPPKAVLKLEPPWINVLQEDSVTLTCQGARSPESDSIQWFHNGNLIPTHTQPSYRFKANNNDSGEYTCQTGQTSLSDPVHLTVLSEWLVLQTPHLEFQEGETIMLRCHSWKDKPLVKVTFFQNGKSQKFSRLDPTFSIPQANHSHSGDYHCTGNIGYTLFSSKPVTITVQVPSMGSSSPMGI

Fold (KD(IgG WT)/KD(variants)) [1]: < 0.3 fold | Kd [1]: > 5 µM | Fold (KD(IgG WT)/KD(variants)) [2]: 3.18 fold | IIa/IIb (ratio of EC50) [3]: 77.8
Substance: IgG1 P238D (antibody)
